In the domain aggregation screens of Martell et al. (2025):

Test: soluble fraction after stress (log2 fold change); higher = more stays soluble; pooled small domains, quantitative proteomics
Conditions: stress: 75 degC
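Further: 20 min heating vs room temperature control held 20 min.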

Sequence | soluble fraction (log2)
HMGLDPVFKKWVDDNPWYTENRVLRALTHDYAEELKQTNPQLVGVEFLDQVKKRVQADHPEFFQ | 0.0133
HMGLGDLEVVDSIGKIRRDGQQMILAFGRHKGRDVQEVYNEDPRYINWLLSPKGIEDENGRGKVRDYLGIN | 0.0837
HMGLKQADFEELASRIFTVLEEKSMTPAEIVRKLNLEPDRISIVIQYLLDEGKLNIKDGFINNSA | -0.29
HMGLLGIYPNPVEGGSVRLLSDADLFGSRFELYDQSGKLVLNGFVTEGNFVSVKGISSGLYISVSYT | 0.245
HMGLLGTDISAETMIGYFKKIDLGFDEETQEVIVPSWRQDLLRDADIAEEVARFYGYDNIPTTLPSGEST | 0.0485
HMGLNLIGLKRSGFAPEEVKAMTRAYMYIFKSAEGNFESRLAKAHEKYKDDALIMEMVEFIDDALKG | -1.09
HMGLQEADKQDRIARMKELISFLNEAAKAYYQEGREIVSNLEYDKAYDALLSLEKESGVVLSGSPSQNVG | 0.321
HMGLRERLLNYIAYKGIDKATLERKSGLSNDAVNKMGDNTRVSTLDKISNAFPDINIAWLKTGVGEMILG | -0.306
HMGLSAALKARLREVINEMAKSGAQPKLREWALAEGIGNFAKPETPEAAEAVIAKAQELLAEA | 0.543
HMGLSASVIQMFADLGYTSEGRSTKEMITDYQIDHSIIKNSTEDGAGTYGPRTKASLSTVHAQYI | -0.0653
HMGLSENALAMLKQQETVLIRLIDGRGNQGALASINLIVSRILNLDIVDRTPEDLLRVIASEGEQND | -3.81
HMGMIRFSKEEQMLMMLYSPGSRLGLIAELESMKLQLNSRERKLRNLAESVLKKLEQITDEEFMQFDF | -2.19
HMGMNSGQADFRGISLALSVDAEAEAQRLFTALADGGQVQMPLSKTFFSPAFGMVADRFGVGWMVVTN | 0.238
HMGMSENIDKVAGGIPYKVEGNKAIINEPLDDATKERLMGKAKEHGYHAAPNQAGGITITLK | -0.0517
HMGMSKQKQSSLVRIIMQEISDANEGRMKMSQIIDAALIKGISDSTVRSVISRLSTTGAIYEPQTGTYEW | -0.649
HMGNEEEEAIREAEEAIERVLEYGEPQELNPQNGFIRRLQHQLAEKSHLSSESVGVEPYRRVRISK | 0.193
HMGNFFDSAILALKNAIQENYGGNVSQAARSLGISVPTLHTWIKGDRKPSLEKLSPILDALNAKIVL | -1.06
HMGNFGDLLKILLDEKELSMGELSKKSGIDKSTISRIANNKQKPNINHLEKMAIHLNINLEELLKASGYEF | -0.666
HMGNFQNIFRKLRTSSNLTQNAIAEKLGISRSTIGMYETGAREPDFETLEKIADYFNVDTDFLLGRTNQTT | -0.315
HMGNKDAQLVHLAKMNEIQIELMKTGRGYMVTDQNVYNLAKKMGENMGFKHPDLFLTDPAKV | -0.0897
HMGNKDIEILFSEIVEMRNRIIHGFRITSKQGEQILATKTRKKDGNIQFEITKEYLLDFIKKNEELSDMLY | -2.46
HMGNKWALLVVFILNENGSTRFNQLARQIPDISTKVLSNTLQILEADGLVKRTVFPEVPIRVEYELTATGK | -3.92
HMGNLIIFYDEGIGSGPLMKAVNDSGVSLVYEYKNLHGIAIRPSAKTNIQDAIAYFQKVNGVLSVEQ | -2.92
HMGNNKLVLSLAVALKNTPNFLKNYNYKISKDKKFIEILLSKQINEVSDIIINLKKNNINIVDLNIKKR | -1.85
HMGNNTEITYSEFIRQAEAGNVQYVTVDGEKLLISATDGKSYYTINPRDDQMTDRLLNSGVEIRAEPQ | 0.021
HMGNRQEQVRIIRDLWRQLADAGQPVPAKHLTLDLDALDATQLTKLEDQAHGWLAKLSAQADLADAA | -0.0412

Sequence | soluble fraction (log2)
HMGNTMIVILKHEARQEQIDRLKQFLLGMGLRIDESKGENSTILGLVGDTTRVDADLISSLDAVEAVRRV | -0.891
HMGNWENVEKETTEAIMAVKNGEAVWVDLAPANRMIRQMQHELVEQYGLLSQSYGKEPKRRIRIFQNP | -0.462
HMGPDALSIGRRVRQVRTARGMTLDELAAAVSRAPSQLSMIETGKREPKLSLLQAIARALGTTIDALLT | -0.856
HMGPDGLFAKFREPETGKDLLITQNVFVEQVLIKGVLTRTLTDAEANTYRAPFVNPEKRFPIYVWPNELP | 0.014
HMGPEAFPVPYIVDIELDRAIYVIEQSGFIVGQKLEANDDNVPRGFVISQNPAAGTKLGPNSVVDLVISSG | -1.18
HMGPEQLIGKTGIAASELAPRGEVKIEGQIWRAETVGDHVKQGEPVEVVSREGLILRVKPKHPQTRG | 0.0258
HMGPEVQLAYSEFLAKVKVGEVNDVMVKGNEIHGHFSDGRTFSTYSPNDPDLVEKLNKNKVMIKAAPP | 0.00889
HMGPFYFDQDGKAYSGLLNRNGEILYFADPFNAAVKNTTKTIDGKTYTFNQNGRATSIDGIPLEPP | 0.0904
HMGPGDTTIPTTIIGMSLEEARNELSAAGLLVARIIPVDSNSRTGTVLKITPDAGSIIKAGSGVELEIAS | -0.101
HMGPGFVGGSVLSGGNRGEGDPVANAQVFITDMDDNVVAFTKTDAEGNFDMTNLAYGDYKMYVDILNK | 0.126
HMGPGSYVVNVKPYAYVSINGRDYGRTPVGPIRLDPGTYKVVFTHEHRPSFSRTIVVEAGRETFETFPYPG | -2.06
HMGPLPIDSRYFNNLVPYTGITHVNSVIPEAERHIGLTVVVKTGSTYSEYWYRTGVTNSSLELKT | -1.41
HMGPLYARVKAIVLARIMGGDWPPGTALPAEMELARALGVSQGTVRKALDALTAEQVVVRRQGSGTYVAE | -1.75
HMGPNYYDILEIPTDASPSEITQAFRKKALEWHPDKNPNNLEEATSRFIEIVEAYRVLSSKDSKLQYDTG | -0.213
HMGPSVGMTVGEMERDLIFRTLETVGDNRTKAADMLGISIRTLRNKLNEYREAGFEWPRKAG | -0.223
HMGQAVTMLKAGRLLANAKGTGAPVRSLEPGMLLYPTGVKEGTMWEVEDEMGNKGWVNSTLMETA | -0.6
HMGQAVTVPELKGLSFDEAIEKLDDAGLKYEVVDSNYVEDMKPGTVFETLPEAGSRVKPRRIVFLTINAF | -0.257
HMGQDTTIVVRRGESLLGIAARLLPATDFYTTGELAEGIRTASGMENDRLIPGQTLRVPLNSG | -0.24
HMGQGEISVPRLEGLSLRETSELLGLFGLRLEAAGSGIALSQNPPAGARVKAGDVIQVDFGEPGN | 0.0756
HMGQHSAELKLHPQDLGQVTISMKVEDNQAQLQMVSGHGHVRAALEAALPQLRSQLADSGIQLTQSSIS | -0.198
HMGQISDEETLKTVASRIIDANPDEARKYRSGKTGLLGFFVGQVMKATQGEANPKLASRIVKELLE | -0.15
HMGQLIVTIPNFERRPAEQAIQKLEELGLVPEEKQIYHDDIPAGSVIYTDPSKDSQVNAGTKVYVYVSLG | -0.311
HMGQMGHAVVAKTDLAVGTPLTRDLVAVREVPVEWLHSSAITPEQFERAAGAVLAQPARGGEPLVWSQLEE | 0.111
HMGQPRPLTAEDFDFLSDDEIAEMRKALSNGEMLRLRELIAQIGEKRPFLAERLLVLAKQYNYEDLSRLLE | -0.472
HMGQQPPVTEIYKNHDGNKDGLLEAGEVTGSRYARQFPRWDVNGDQKVSPQEVIAFRKRFGIAADGTLL | 0.0193
HMGQQTVEPLSRRELEVLSLLAKGLSNQQIADRLVISVRTVKKHVENIHGKLGVQSRTQAVARARELGLV | -1.24

Sequence | soluble fraction (log2)
HMGQTYTITINPTPADAKVIIDGVATNSVEAIDGRTLIWSVSKPGYLTKSGNYTVTGKNETLNIVLKEDPD | 0.163
HMGQVLEGVFRRKANGKNAFIPDGGGEPILVAERNSAHAMDGDRVKATLLARRKHHVREAQVTEILKRSSK | -0.258
HMGQVSDENQLNKVIDEVIKNYPIQVEQFKAGKEPILQFLKGMVMKATEGSADPAVAEKLLRKKL | 0.0979
HMGQYLDAATVAAVYHAYHARNWTQATLAKELKVARPTLSNVLNGREAPSVELAARIRAFLGSPEP | -3.16
HMGRAAEETETFRTQGELDARIKELQGQMRDAAANLEFERAAGLRDTLKRLRTRGLGLSASP | 0.0633
HMGRENGTVKWFNTSKGFGFITRDDGGDVFVHFRSIQGEGHRALQEGQRVSYVVANRDKGLQAEDVTILN | -0.277
HMGRKRLADYGLNDTEQKIVRKIADGLSNREIAQALYLSEGTVKNYITDILGKLELRDRTQIAIFYLREIG | -0.941
HMGRLTTKIVLYDRIENIVPERRKELVADIEKRIGVKVEVLEIGHVDFVRDAAWLKVSYYLAPGE | -2.21
HMGRNSTPKEPLKKFEVSPITEKEVRILDGRFGPYITDGATNVTVPKTITIEEITFERALDMLAEKAAKGP | 0.0521
HMGRPQISDELRNAIIEVAKDNRDWGYIRIQGQLKYLGYRVSTATIGKVLKKAGLEPQPDRRRK | -1.92
HMGRPWRIGDVVNVSRPTGDGGGFTKGLITRIYPTTVQVTWNPDLQHARPWTTMEKKQYLIFVYHDDE | -3.09
HMGRQTITLPDFSGQDLEQVKARLTEWGLVPEEKSVFSDSVPLGSVVRTVPAEGDEVSVGDTVTVYKSLGR | 0.19
HMGRRDLSWQPAAGGVSIDGLKAGEAWTLFGLNGRILKQGYAPEGQMSLAVNAGLFVLRGAESGVIRIAVA | -1.38
HMGRSYTIKSGDTLWAIATRYYGNGAQYSKIYNANKGTIESVAKSRGFRSSQNGHWIFPGTSITI | -0.722
HMGRTITVGIAEDADIKDIAKMLEEKGLISDYRLFVVQELLSAQHDKIKPGIYDLSTDMKAEEMLEILAG | -0.248
HMGRTKEEIFNILKERIVTLQYEPGKILNEIELSEEFEVSRTPIRTVFQQLEAVKLVSIVPRYGVQVA | -1.15
HMGRYATVPDVVGSTPEVARELIRSEGLRYVLSEETVYSDSDTGTVGRTDPESGTRMSADDEVVVYLS | 0.0649
HMGRYVIQIASFSSKNNAIEAADKLGGFVVQSGRFYRVRTGPFATRGEADAALASARRVGYRDAFIDTS | -1.59
HMGSAIAHAIASLPDRYRELLLLKYDTGYSEKEIAQLLGMTEANVKKTIQRAKAKLQTLLDEMEA | -1.43
HMGSAKAQLYDLMNAHQVTRNQIQDIVAEKGYFPAGTPIENYPDDFVKGVLVGAWDQVHKAILDKEI | 0.326
HMGSEISLNAFNIPKGSVSVTAGGTKLVENQDYTVDYTLGRIKILNEGILNSGVPIQVNFENNTLFN | -0.0124
HMGSEYILTIIPTPADATVFINGVKKNSASGVNGQILSWEVTKEGYIPQSGTFTINGKNETIEVVLQPQT | 0.122
HMGSFFSKATAPVRTTGGDGLYKHGSIWFNTSTGRLFVYIPDDRYTGLLDTHNGDIGYWVDVS | -2.53
HMGSFGAMLKRNRKLAGLTQEQLAEKLDVSTVAVQNWESGKNQIRSEKLTKLSYLFNIPLETLIHEMLIS | -1.12
